Conditions: Bacillus amyloliquefaciens; pH 6.3; 25 °C; Urea; Fluorescence; MES 1.00 M; NaCl 613 mM; reversible: yes; whole UniProt chain shown

B1: Ribonuclease wild type, P00648 (protein)
chain: MMKMEGIALKKRLSWISVCLLVLVSAAGMLFSTAAKTETSSHKAHTEAQVINTFDGVADYLQTYHKLPDNYITKSEAQALGWVASKGNLADVAPGKSIGGDIFSNREGKLPGKSGRTWREADINYTSGFRNSDRILYSSDWLIYKTTDHYQTFTKIR
denaturant m value: 1.93 kcal/mol/M | denaturant midpoint (higher = more stable): 4.57 M | unfolding free energy: 8.8 kcal/mol

Reference: FireProtDB (doi:10.1016/0022-2836(92)90906-z)
